Publication PMC1885262, “Purification and preliminary crystallization of alanine racemase from Streptococcus pneumoniae” (BMC Microbiology, 2007)

Tests used:
[1] = substrate: C[C@H](N)C(=O)O; test: alanine racemase photometric assay; type: biochemical, Streptococcus pneumoniae; conditions: 23°C, L- to D-alanine direction
[2] = substrate: C[C@@H](N)C(=O)O; test: alanine racemase photometric assay; type: biochemical, Streptococcus pneumoniae; conditions: 23°C, D- to L-alanine direction

B1: AlrSP (alanine racemase from S. pneumoniae) (Streptococcus pneumoniae R6) (protein)
chain: MKASPHRPTKALIHLGAIRQNIQQMGAHIPQGTLKLAVVKANAYGHGAVAVAKAIQDDVDGFCVSNIDEAIELRQAGLSKPILILGVSEIEAVALAKEYDFTLTVAGLEWIQALLDKEVDLTGLTVHLKIDSGMGRIGFREASEVEQAQDLLQQHGVCVEGIFTHFATADEESDDYFNAQLERFKTILASMKEVPELVHASNSATTLWHVETIFNAVRMGDAMYGLNPSGAVLDLPYDLIPALTLESALVHVKTVPAGACMGYGATYQADSEQVIATVPIGYADGWTRDMQNFSVLVDGQACPIVGRVSMDQITIRLPKLYPLGTKVTLIGSNGDKEITATQVATYRVTINYEVVCLLSDRIPREYY
notes: full length, 367 residues, 39854 Da, homodimer (~80 kDa by gel filtration); pET17-alrSP (NdeI/BamHI) in E. coli BL21(DE3) pLysS; no tag mentioned
Km [1]: 1920 µM | Km [2]: 2100 µM
